Experimental data: patent publication US20150259402A1 (EVEC, published 2015)

B1: EV029105a (antibody, human IgG1, kappa, V domains shown)
VH: QVQLVQSGAEVKKPGSSVKVSCKASGDTFSSHAITWVRQAPGQGLEWMGRIIPIFSISDYAQKFQGRVTFTADKSTSIAFMELSSLRSQDTAVYYCARSLLAYCTGGSCSEFGAEDHWGQGTLVTVSS
VL: EIVLTQSPGTLSLSPGERATLSCRASQSVSSNYLAWYQQKPGQAPRLLIFGASSRATGIPDRFSGSGSGTDFTLTISRLEPEDFAVYYCQQYGSSIPVTFGQGTKVEIKR
notes: also called anti-toxin A antibody EV029105a
B2: EV029104 (antibody, human IgG1, lambda, V domains shown)
VH: EVQLVESGGGLVQPGGSLRLSCAASGLTINSYWMNWVRQIPGKGLEWVANINPTGSQQYYVDSVRGRFTISRDDAKKSLFLQLDSLRVEDTAVYYCARGRRGNSAYCDSWGQGTQVTVSS
VL: QSALTQPRSVSGSPGQSVTISCTGTSSDIGAYDYVSWYRHHPGKAPKLIIFDVAKWPSGVPDRFSGSKSGNTASLTISGLQDDDEGDYYCCSYAGRFSLIFGGGTKLTVLG
notes: also called anti-toxin B antibody EV029104

Experiments:
[1] = biological target: T1, toxin A fragment 4 (receptor-binding domain, amino acids 1853 to 2710 of toxin A) (Clostridium difficile, UniProt P16154 1853-2710); assay: Western blotting on E. coli lysates of toxin A fragments
T1 construct: also called RB domain

[2] = biological target: T2, Clostridium difficile toxin A (Clostridium difficile, UniProt P16154 1-2710); assay: cell-based or functional assay
[3] = biological target: T2, Clostridium difficile toxin A; assay: SPR, Biacore T200, biotinylated toxin A on sensor chip CAP, antibody flowed
[4] = biological target: T3, toxin B fragment 4 (receptor-binding domain, amino acids 1777 to 2366 of toxin B) (Clostridium difficile, UniProt P18177 1777-2366); assay: Western blotting on E. coli lysates of toxin B fragments
T3 construct: also called RB domain

[5] = biological target: Clostridium difficile toxin B (Clostridium difficile, UniProt P18177 2-2366); assay: cell-based or functional assay

T2 sequence (P16154 whole entry): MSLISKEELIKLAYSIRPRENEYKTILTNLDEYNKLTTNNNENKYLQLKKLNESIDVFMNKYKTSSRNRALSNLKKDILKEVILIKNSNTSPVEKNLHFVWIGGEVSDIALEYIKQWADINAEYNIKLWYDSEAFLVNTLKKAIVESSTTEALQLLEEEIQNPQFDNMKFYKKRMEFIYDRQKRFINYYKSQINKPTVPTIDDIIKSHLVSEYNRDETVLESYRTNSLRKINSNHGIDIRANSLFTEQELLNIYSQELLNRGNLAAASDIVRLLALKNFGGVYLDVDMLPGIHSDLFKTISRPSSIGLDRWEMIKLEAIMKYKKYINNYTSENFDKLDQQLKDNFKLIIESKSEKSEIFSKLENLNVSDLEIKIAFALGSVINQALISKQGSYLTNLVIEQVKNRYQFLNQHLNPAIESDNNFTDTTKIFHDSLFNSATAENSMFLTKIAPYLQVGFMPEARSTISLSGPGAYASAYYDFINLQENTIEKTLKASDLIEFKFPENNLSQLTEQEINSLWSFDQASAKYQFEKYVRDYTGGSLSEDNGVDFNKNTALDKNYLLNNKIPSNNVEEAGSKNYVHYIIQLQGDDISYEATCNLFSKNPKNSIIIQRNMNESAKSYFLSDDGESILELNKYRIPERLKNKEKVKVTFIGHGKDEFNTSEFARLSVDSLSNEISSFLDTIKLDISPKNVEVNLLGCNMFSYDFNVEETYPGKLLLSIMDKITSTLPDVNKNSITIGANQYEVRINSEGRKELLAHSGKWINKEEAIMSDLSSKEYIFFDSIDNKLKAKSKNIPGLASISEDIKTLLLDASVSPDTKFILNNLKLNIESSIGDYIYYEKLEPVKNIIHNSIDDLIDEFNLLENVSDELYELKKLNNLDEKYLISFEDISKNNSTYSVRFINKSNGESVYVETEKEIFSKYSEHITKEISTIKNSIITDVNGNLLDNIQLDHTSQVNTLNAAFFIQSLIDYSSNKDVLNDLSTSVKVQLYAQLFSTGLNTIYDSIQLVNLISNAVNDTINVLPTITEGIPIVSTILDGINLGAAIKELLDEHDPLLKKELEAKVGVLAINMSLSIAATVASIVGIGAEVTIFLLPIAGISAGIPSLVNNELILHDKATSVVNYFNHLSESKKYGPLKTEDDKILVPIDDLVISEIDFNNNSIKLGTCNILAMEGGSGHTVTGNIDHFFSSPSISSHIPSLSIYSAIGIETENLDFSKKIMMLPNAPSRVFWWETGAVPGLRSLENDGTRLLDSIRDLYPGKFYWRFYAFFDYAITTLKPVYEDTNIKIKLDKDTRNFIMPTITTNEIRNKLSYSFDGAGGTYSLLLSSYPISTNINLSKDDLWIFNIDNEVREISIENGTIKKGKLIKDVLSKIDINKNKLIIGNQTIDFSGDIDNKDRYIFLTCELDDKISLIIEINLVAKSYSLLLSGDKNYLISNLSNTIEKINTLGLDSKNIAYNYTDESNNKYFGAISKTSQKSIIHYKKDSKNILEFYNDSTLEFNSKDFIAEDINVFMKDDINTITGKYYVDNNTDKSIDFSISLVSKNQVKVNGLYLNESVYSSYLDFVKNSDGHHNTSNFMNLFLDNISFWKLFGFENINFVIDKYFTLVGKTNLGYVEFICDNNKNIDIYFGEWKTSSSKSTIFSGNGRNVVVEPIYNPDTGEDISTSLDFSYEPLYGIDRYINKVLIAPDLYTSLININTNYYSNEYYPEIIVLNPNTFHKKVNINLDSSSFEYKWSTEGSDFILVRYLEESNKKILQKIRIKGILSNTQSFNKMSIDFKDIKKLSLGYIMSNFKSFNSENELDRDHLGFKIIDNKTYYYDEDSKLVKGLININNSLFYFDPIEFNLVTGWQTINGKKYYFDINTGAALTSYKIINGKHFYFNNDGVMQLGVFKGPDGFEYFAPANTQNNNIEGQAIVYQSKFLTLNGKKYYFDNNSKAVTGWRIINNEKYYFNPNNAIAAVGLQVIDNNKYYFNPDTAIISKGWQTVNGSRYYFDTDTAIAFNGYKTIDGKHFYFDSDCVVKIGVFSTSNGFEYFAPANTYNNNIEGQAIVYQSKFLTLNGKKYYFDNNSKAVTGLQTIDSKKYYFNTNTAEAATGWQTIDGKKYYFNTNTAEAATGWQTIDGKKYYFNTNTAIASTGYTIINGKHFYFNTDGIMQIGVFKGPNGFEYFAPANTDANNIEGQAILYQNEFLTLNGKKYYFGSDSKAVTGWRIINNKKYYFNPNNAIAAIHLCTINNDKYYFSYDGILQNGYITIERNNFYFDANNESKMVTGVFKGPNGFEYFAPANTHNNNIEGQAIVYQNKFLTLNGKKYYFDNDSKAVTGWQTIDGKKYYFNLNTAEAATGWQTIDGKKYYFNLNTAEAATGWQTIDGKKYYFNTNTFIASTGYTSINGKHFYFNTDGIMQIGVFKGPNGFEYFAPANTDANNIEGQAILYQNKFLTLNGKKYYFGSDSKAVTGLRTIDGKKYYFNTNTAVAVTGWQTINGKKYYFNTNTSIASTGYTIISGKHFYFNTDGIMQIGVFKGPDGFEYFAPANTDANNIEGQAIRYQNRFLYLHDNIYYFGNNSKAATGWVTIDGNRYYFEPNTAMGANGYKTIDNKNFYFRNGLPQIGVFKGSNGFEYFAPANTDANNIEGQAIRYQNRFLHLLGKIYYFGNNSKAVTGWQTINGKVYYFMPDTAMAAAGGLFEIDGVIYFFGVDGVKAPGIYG
T1 sequence (P16154 1853-2710): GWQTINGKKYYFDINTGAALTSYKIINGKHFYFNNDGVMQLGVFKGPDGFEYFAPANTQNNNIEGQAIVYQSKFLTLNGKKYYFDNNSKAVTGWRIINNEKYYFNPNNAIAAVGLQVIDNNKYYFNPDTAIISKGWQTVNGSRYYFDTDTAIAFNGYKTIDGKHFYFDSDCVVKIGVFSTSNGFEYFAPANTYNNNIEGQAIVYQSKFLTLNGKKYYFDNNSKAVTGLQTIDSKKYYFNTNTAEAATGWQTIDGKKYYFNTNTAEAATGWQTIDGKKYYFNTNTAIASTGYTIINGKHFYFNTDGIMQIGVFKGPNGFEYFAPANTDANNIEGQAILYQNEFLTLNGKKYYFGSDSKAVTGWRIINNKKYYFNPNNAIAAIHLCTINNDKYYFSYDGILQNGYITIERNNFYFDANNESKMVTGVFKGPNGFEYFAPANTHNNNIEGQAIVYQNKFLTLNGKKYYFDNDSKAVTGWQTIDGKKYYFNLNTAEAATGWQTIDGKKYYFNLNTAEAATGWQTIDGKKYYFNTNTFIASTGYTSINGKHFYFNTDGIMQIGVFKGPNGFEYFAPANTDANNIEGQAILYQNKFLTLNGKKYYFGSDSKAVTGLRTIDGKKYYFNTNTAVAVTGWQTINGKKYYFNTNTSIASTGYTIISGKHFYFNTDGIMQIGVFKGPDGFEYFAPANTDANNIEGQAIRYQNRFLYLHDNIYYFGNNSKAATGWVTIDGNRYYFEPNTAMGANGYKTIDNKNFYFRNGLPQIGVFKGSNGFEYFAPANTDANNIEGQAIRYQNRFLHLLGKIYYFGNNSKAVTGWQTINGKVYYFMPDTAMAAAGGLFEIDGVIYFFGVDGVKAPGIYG
T3 sequence (P18177 1777-2366): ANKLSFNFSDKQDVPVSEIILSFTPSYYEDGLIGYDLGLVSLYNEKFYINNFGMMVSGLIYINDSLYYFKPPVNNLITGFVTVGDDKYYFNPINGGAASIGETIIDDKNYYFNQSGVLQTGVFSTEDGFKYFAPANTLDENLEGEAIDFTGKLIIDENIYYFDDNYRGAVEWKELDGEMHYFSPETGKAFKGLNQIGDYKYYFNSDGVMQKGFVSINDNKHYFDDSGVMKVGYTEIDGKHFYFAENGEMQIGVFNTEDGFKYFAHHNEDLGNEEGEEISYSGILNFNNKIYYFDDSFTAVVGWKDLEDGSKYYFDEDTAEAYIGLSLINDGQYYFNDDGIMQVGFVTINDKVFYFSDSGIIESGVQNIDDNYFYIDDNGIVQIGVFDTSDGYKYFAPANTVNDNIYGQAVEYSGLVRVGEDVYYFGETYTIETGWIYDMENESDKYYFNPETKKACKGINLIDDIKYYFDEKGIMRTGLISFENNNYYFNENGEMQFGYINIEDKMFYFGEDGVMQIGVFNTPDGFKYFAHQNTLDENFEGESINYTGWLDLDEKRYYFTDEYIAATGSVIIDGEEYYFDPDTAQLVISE

Binder | binding result [1] | EC50 (ng/mL), neutralizing activity against the cytotoxicity of toxin A to IMR-90 cells (cell rounding) [2] [ng/mL] | EC50, neutralizing activity against the cytotoxicity of toxin A to IMR-90 cells (cell rounding) [2] [pM] | Kd [3] [pM] | koff [3] [s⁻¹] | kon [3] [M⁻¹ s⁻¹] | binding result [4] | neutralizing activity (EC50 value), rounding of toxin B-exposed IMR-90 cells [5] [ng/mL]
B1 | binds | 4.92 | 33 | 151 | 9.89e-05 | 653000 |  | 
B2 |  |  |  |  |  |  | binds | ≤ 100
